Experimental data: the nanobody polyreactivity screen of Harvey et al. (2022)

Assay: yeast display, Sf9 membrane polyspecificity reagent, FACS + sequencing; frameworks hold sequencing errors
Outline: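 In a synthetic yeast display library (Saccharomyces cerevisiae BJ5465), nanobody expression was induced with galactose for 36–48 hours. FACS gates were set low and high (top ~1%) using anti-HA fluorescence for expression and streptavidin fluorescence for binding of the Sf9 membrane reagent. Each polyreactivity label is drawn from the gate of origin.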

Row | Sequence | polyreactivity (PSR sort gate)
1 | QVQLVESGGGLVEAGGSLRLSCAASGSTFVIYTIGCYRQAPGTQRELVAAISSSGGITYYSDSVKGRFTISRDNAKNTVYLQMNSLKPEDTAVYYCAADSRSAYSPYYYWGQGTQVTVSS | high polyreactivity
2 | QVQLVESGGGLVQAGGSLRLSCAASGFTFYGNAMGWYRQAPGKERELVASISTYYADSVKGRFTISRDNAKNTVYLQMNSLKPEDTAVYYCAATHYDRTFYVIYDYWGQGTQVTVSS | low polyreactivity
3 | QVQLVESGGGLVQAGGSLRLSCAASGRIFSVNAMGWYRQAPGTEREFVAAISWSGSSTYYADSVKGRFTSSRDNAKITVYLQMNSLKPEDTAVYYCNADIDFGTREVYYWGQGTQVTVSS | low polyreactivity
4 | QVQIVESGGGLVQAGRSLRLSCAASGSTFGSYAMGWYRQAPGKDRELVAAISASGGSTYYADSVKGRFTISRDNAKHTVYLQMNSLKPEDTAVYYCATVYYSARYTYWGQGTQVTVSS | high polyreactivity
5 | QVQLVESGGGLFQAGGSLRLSCAASGRTFYKYAMGWYRQAPGKERELVATITSGGSTNYADSVKGRFTISRDNAKNTVYLQLNCLKPEETAVYYFAARGHIYKIRDPYWTHDFWGQGTQVTVSS | low polyreactivity
6 | QVQLVESGGGLVQAGGSLRLSCAASGRTFRGNAMGWNRQTHGKERELVAAISWSGGRTYYADSVKGRFTISRDNAKNSVYLQMNSLKPEDTAVYDCAAVVPKYGQAGYDYWGQGTQVSVSS | high polyreactivity
7 | QVQLVESGGGLVQAGGSLRLSCAASGSTLGYYTMGWYRQAPGKERELVAAISGSGVTTSYADSVKGRFTISRDTAKNTVYLQMNSLKPEDTAVYYCARRYRVGTTGGDYWGQGTQVTVSS | high polyreactivity
8 | QVQLVESGGGLDQAGGSLRLSCAASGSTLGRYTMGWYRQAPGKERELVAAITRGGRTNYADSVKGRFTISRDNAKNTVYLQMNSLKPEDTAVYYCAKLYRYGDYDYWGQGTQVTVSS | high polyreactivity
9 | QVQLVESGGGLVQAGGSLRLSCAASGRTFTSYAMGWYRQAPGKERELVAAISGNGVTTYYADSVKGRFTISRDNAKNTLYLQINSLKPEDTAVYYCAAGQRRFGYYYWGQGTQVTVSS | high polyreactivity
10 | QVQLVESGGGLVQAGGSLRLSCAASGLTFEWYAMGWYRQAPGKERELVAAISWNGGSTYYADSVKGRFTISRDNAKNTVYLQMNSLKPEDTAVYYCATSSPRRYYWGQGTLVTVSS | high polyreactivity
11 | QVQLVESGGGLVQAGGSLRLSCAASGITFDKYPMGRYRPAPGKDRELVAAISGSDGSTYYADSVKGRFTISRDNAKNSVYVQMNSLKPDDTAVYDCAAESVYAGTYEYDYWGQGTQVTVSS | low polyreactivity
12 | QVQLVESGGGLAQAGGSLRLSCAASGRIFSVNVMGWYRQAPGKERELVAAITWSVGSTYYADSVKGRFTISRDNAKNTVYLQMNSLKPEDTAVFYCAARVPPVYGRVGGYHYWGQGTQVTVSS | low polyreactivity
13 | QVQLVESGGGLVQAGGSLRLSCAASGITIRYYTMGWYRQAPGKESELVASISWSGTSTHYADSVKGRFTISRDNAKNTVYLQMNSLKPEDTAVYYCAATITSLAGVYRNGYTSYYWGQGTQVTVSS | high polyreactivity
14 | QVQLVESGGGLVQAGGILRLSCAPSGSTFTFYAMGLYRQAPGKERELVAAINSSGGRTYYADSVKGRFTISRDNAKNTVYLQMNSLKPEDTAVYYCAARRPLVRYIMGYWGQGTQVTVSS | high polyreactivity
15 | QVQLVESGGGLVQAGGSLRLSCAASGSIFDRNAMGWYRQAPGIERELVAAITSRGGSTYYADSVKGRFTISRDNAKNTVYLQMNSLKPEDTAVYYCAARYSSRGTYPRRYDYWGQGTQVTVSS | high polyreactivity
16 | QVQLVESGGGLVQAGGSLRLSCAASGRIFLSNAMGWYRQAPGKERELVASITSGGSTNYADSVKGRFTISRDNAKNTVYLQMNSLKPEDTAVYYCAKRYRHSGYFVGFNYWGQGTQVTVSS | high polyreactivity
17 | QVQLVESGGGLVQAGGSLRLSCAASGRIFIYAMGWYRQAPGKERELVAAISWSGGSTYYADSVKGRFTISRDNAKNTVYLQMNSLKPEDTAVYYCAADYEGWGYDYRGDYWGQGSQVTVSS | low polyreactivity
18 | QVQLVESGVGLVQAGGSLRLSCAASGRIFSFYAMGWYRQAPGKERELVAAITYTDGSTYAVSVKGRFTISRDYAKNTVYLQTNSLKPEDTAVYYCATRYRWTPYDYWGQGTQVTVSS | low polyreactivity
19 | QVQLVESAGGFVQAGGSLRLSCAASGLTFYYYAMGWYRQAPGTERELVAAFSTRGTSTYYADSVKGRFTISRDNAKKTVYLQMNSQKPEDTAVYYCAADSYPWGTGGDYWGQGTQVTVSS | high polyreactivity
20 | QVQLVESGGGLVQAGGSLRLSCAASGSIFGPNAMGWYRQAPGKERELVAAITLSGGSTYYADSVKGRFTISRDNAKNTVYLQMNSLKPEDTAVYYCNADLLPADAPLWVTGGDYWGQGTQVTVSS | low polyreactivity
21 | QVQLVESGGGLVQAGGSLRLSCAASGRTFGVNAMGWYRQAPGKEREFVAAISRSTGSTYYADSVKGRFTISRDNAKNTVYLQMNSLKPEDTAVYYCAVKGASYPAYRGYDYWGQGTQVTVSS | high polyreactivity
22 | QVQLVESGGGLVQAGGSLRLSCAASGSTFLRYAMGWYRQAPGKERELVATITSGGSTYADSVKGRFTISRDNAKNTVYLQMNSLKPEDTAVYYCAARANTKKPYYYWGQGTQVTVSS | high polyreactivity

Row | Sequence | polyreactivity (PSR sort gate)
23 | QVQLVESGGGLVQAGGSLRLSCAASGFIFLYNAMGWDRQARGKERELVAAITSSGGTTYYADSVKGRFTISRDNAKNTVYLQINSLKPEDTAVYYCAARYTGRNGGSTTPEYDYWGQGTQVTVSS | low polyreactivity
24 | QVQLVESGGGLVQAGGSLRLSCAASGRTFYGYAMGWYRQAPGKERELVATISGSGASTYYADSVKGRFTISRDNAKNTVYLQMNSLKPEVTAVYYFAARYVTNRHSRYYYWGQGTQVTVSS | high polyreactivity
25 | QVQLVESGGGLVQAGGRLRLSCAASGSTFGFNAMGWSREAPGKERELVAASNDSGGDTYYADSVKGRFTSSRDNAKNTVYLQMNSLKPEDTAVYYCAADEPSSVYGILVELEYWGQGTQVTVST | high polyreactivity
26 | QVQLVESGGGLVQAGGSLRLSCAASGRTYFDYTMGWYRQAPGKERELVAAINRSGVSTYYADSVKGRFTISRDNAKNTVYLQMNSLKPEDTAVYYCNADRGPPKLEYDPVIMDYWGQGTQVTVSS | low polyreactivity
27 | QVQLVESGGGLVQAGGSLRLNCAASGRIFVGNTMGWDRQAPGKERELVAAITVRGGSTYYADSVKGRFTISRDNAKNTVYLQMNSLKPEDTAVYYCAARRRIFPPRFGYWGQGTQVTVSS | high polyreactivity
28 | QVQLVESGGGLVQAGGSLRLSCDASGSTFRGYAMGWYRPAPGKERELVAAITSDGSTNYADSEKGRFTISRDNAKNTVYLQMNSLKPEDTAVYYCNVKATRKWWDRRVYRYNYWGQGTQVTVSS | high polyreactivity
29 | QVQRGESGGGLVQAGGSLRLSCAASAIIIYYYAMGCYRQAPGNERELVAGISYSGGSTYADSVKGRFTISRDNAKLTVYLQMNSLKPEDTAVYYCAAEYEYGGHWYDYWGQGTQETVSS | low polyreactivity
30 | QVHLVESGGGLVQAGGSLRLSCSASGFTFGSNAMGWYRQAPGKERELVAAINYSGLRTYYADSVKGRFTISRDNAKNTVYLQMNSLKPEDTAVYDCAARTSIVTRLRYGYWGQGTQVTVSS | high polyreactivity
31 | QVQLVESGGGLVQAGGSLRLSCAASGRTIGKNAMGWYRQAPGKERELVAAISWRGGSTRYADSVKGRFTISRDNAKNTVYLQMNSLKPEDTAVYYCAVRFLTYWHGSYWYDYWGQGTQVTVSS | high polyreactivity
32 | QVQLVESGGGLVQAGGSLRLSCAASGHSFFYYTMGWYRQAPGKERELVAGITIGGSTNYADSVKGRFTISRDNAKNTVYLQMNSLKPEETAVYYCKKRYVVSRKYDYWGQGTQVTVSS | low polyreactivity
33 | QVQLVESVGGLVQAGGSLRLSCAASGFTFRHYVMGWYRQQPGKERELVAAIDVRGGSTYYADSVKGRFTISRDNAKNTVYLQMNSLKPEDTAVYYCAKRLIPRLPNLQKMDYWGQGTQVTVSS | low polyreactivity
34 | QVQLVESGGGLVQAGGSLRLSCAASGRIFVYNAMGWYRQAPGKERELVAAISWSGGSTYYADSVKGRFTISRDNAKNTVYLQMNSLKPEDTAVYYCAAYYSARRGHYRNSYGYDYWGQGTQVTVSS | high polyreactivity
35 | QVQLVESGGGLVQAGGSLRLSCAASGSIFPSNAMGWYRQAPGKERELVAAISWSGDITYYADSVKGRFTISRDNAKNTVYLQLNSLKPEDTAVYYCAADTPIAGYWYNYWGQGTQVTVSS | low polyreactivity
36 | QVQLVESGGGLVQAGGSLRLSCAASGSTFWANAMGWYRQAPGKERELVAGITWNAGSTYYADSVKGRFTISRDYAKNNVYFQMNSLNPEDTAVDYCAAYYHFQGWGPGYNSWGQGTQVTVSS | low polyreactivity
37 | QVQLVESGGGLVQEGGTLRLSCAASGSISIRNAMGWYRQAPGKERELVAAITYSGGSTYYADSVKGRFTISRDTAKNTVYLQMNSLKPEDTAVYYCAKDHYRFRYDYWGQGTQVTVSS | low polyreactivity
38 | QVQLVESGGVLVQAGGSLRLSCAASGSTFSTNAMGWYRQAPGKEREFVAAITWSGDSTDYADSVKGRFTISRDNAKNTVYLQMNSLKPEDTAVYYCAADFPGFYYVYPGDYWGQGTQVTVSS | low polyreactivity
39 | QVQLVESGRGLVQAGGSLRLSCAASGIIFYENAMGWYRQAPGKERELVADITQSGGSTYYADSVKGRFTISRDNAKNTVYLQMNSLKPEDTAVYYCAADGYDPYGGLYDYWGQGTQVTVSS | low polyreactivity
40 | QVQLVESGGGLVQAGGSLRLTCAASGRIFALYAMGWYRQAPGKERELVAAITSGSTYYADSVKGRFTISRDNAKNTVYLQMNSLKPEDTAVYYCAADANYYPTEYYPFDYWGQGTQVTVSS | low polyreactivity
41 | QVQLVESGGGLVQAGGSLRLSCAASGLIFGGNAMGWYRQAPGKERELVAAISRTGGRTYYADSVKGRFTISRDNAKNTVFLQMNSLKPEDTAVYYCAAAAQRPEGYYWGQGTQVTVSS | high polyreactivity
42 | QVQLVESGGGLVQAGGSLRFSCAASGRILFSYGAMGLYRQAPGRERELDAATSYSGGSTYYADSVKGRFTISRDKAKKTVYLQMNSLKPEETAVYYCDPSSIVYRHYYWGQGTQVTLSS | high polyreactivity
43 | QVQLVESGGGLVQAGGSLRLSCAASGRTFRINTMGWYRQAPGKERELVATITGSGGSTYYADSVKGRFTISRDNANNTVYLQMNSLKPEDTAVYYCAAFGDQNEYDYWGQGTQVTVSS | low polyreactivity
